Source: the supplement of paper PMC9112550, “Optimization of the antimicrobial peptide Bac7 by deep mutational scanning” (BMC Biology, 2022)

Test system: Escherichia coli TOP10
Assay: shrunken log2 fold change of peptide-encoding DNA abundance (4.5 h post-induction vs induction); higher = less antimicrobial activity (less host growth inhibition)
Settings: time post-induction: 4.5 h; library: site-saturation at positions 5, 18, 19, 20
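Further: peptides expressed intracellularly from a pBAD plasmid library in pooled LB shake-flask culture, induced with 0.3% L-arabinose, DNA abundance read by NGS, three biological replicates, DESeq2 with apeglm shrinkage.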

Row | Sequence | shrunken log2 fold change
1 | RRIRRRPPRLPRPRPRPTMSPRP | 0.315
2 | RRIRRRPPRLPRPRPRPTNVPRP | -0.0322
3 | RRIRRRPPRLPRPRPRPTQCPRP | 0.252
4 | RRIRRRPPRLPRPRPRPTQVPRP | 0.677
5 | RRIRRRPPRLPRPRPRPTRMPRP | 1.08
6 | RRIRRRPPRLPRPRPRPTTRPRP | 0.941
7 | RRIRRRPPRLPRPRPRPTVGPRP | 0.0232
8 | RRIRRRPPRLPRPRPRPTVTPRP | 0.144
9 | RRIRRRPPRLPRPRPRPTYCPRP | -0.0567
10 | RRIRRRPPRLPRPRPRPVAIPRP | 0.687
11 | RRIRRRPPRLPRPRPRPVCAPRP | 0.547
12 | RRIRRRPPRLPRPRPRPVCIPRP | 0.0361
13 | RRIRRRPPRLPRPRPRPVCWPRP | 0.586
14 | RRIRRRPPRLPRPRPRPVDQPRP | 0.348
15 | RRIRRRPPRLPRPRPRPVEGPRP | 0.268
16 | RRIRRRPPRLPRPRPRPVETPRP | 0.181
17 | RRIRRRPPRLPRPRPRPVFAPRP | 0.455
18 | RRIRRRPPRLPRPRPRPVGMPRP | 1.08
19 | RRIRRRPPRLPRPRPRPVHAPRP | 0.67
20 | RRIRRRPPRLPRPRPRPVHHPRP | -0.468
21 | RRIRRRPPRLPRPRPRPVHSPRP | -0.0233
22 | RRIRRRPPRLPRPRPRPVKNPRP | 0.148
23 | RRIRRRPPRLPRPRPRPVLAPRP | 0.83
24 | RRIRRRPPRLPRPRPRPVLDPRP | 0.402
25 | RRIRRRPPRLPRPRPRPVLQPRP | 0.0941

Row | Sequence | shrunken log2 fold change
26 | RRIRRRPPRLPRPRPRPVMLPRP | -0.0342
27 | RRIRRRPPRLPRPRPRPVNAPRP | 0.37
28 | RRIRRRPPRLPRPRPRPVNDPRP | 0.52
29 | RRIRRRPPRLPRPRPRPVQKPRP | 0.223
30 | RRIRRRPPRLPRPRPRPVQVPRP | 0.189
31 | RRIRRRPPRLPRPRPRPVQYPRP | -0.00909
32 | RRIRRRPPRLPRPRPRPVVWPRP | 0.643
33 | RRIRRRPPRLPRPRPRPVWRPRP | 0.436
34 | RRIRRRPPRLPRPRPRPVYFPRP | -0.267
35 | RRIRRRPPRLPRPRPRPVYQPRP | -0.384
36 | RRIRRRPPRLPRPRPRPVYSPRP | -0.139
37 | RRIRRRPPRLPRPRPRPWARPRP | 0.222
38 | RRIRRRPPRLPRPRPRPWAWPRP | 0.0216
39 | RRIRRRPPRLPRPRPRPWDWPRP | 0.428
40 | RRIRRRPPRLPRPRPRPWEMPRP | -0.171
41 | RRIRRRPPRLPRPRPRPWGHPRP | -0.165
42 | RRIRRRPPRLPRPRPRPWHLPRP | -0.138
43 | RRIRRRPPRLPRPRPRPWHTPRP | -0.456
44 | RRIRRRPPRLPRPRPRPWHVPRP | -0.135
45 | RRIRRRPPRLPRPRPRPWIAPRP | -0.00369
46 | RRIRRRPPRLPRPRPRPWIRPRP | -0.298
47 | RRIRRRPPRLPRPRPRPWKHPRP | -0.167
48 | RRIRRRPPRLPRPRPRPWLFPRP | 0.383
49 | RRIRRRPPRLPRPRPRPWLIPRP | -0.319
50 | RRIRRRPPRLPRPRPRPWLMPRP | -0.185

Row | Sequence | shrunken log2 fold change
51 | RRIRRRPPRLPRPRPRPWMRPRP | 0.172
52 | RRIRRRPPRLPRPRPRPWQGPRP | -0.00783
53 | RRIRRRPPRLPRPRPRPWQIPRP | 0.0297
54 | RRIRRRPPRLPRPRPRPWRCPRP | 0.175
55 | RRIRRRPPRLPRPRPRPWRFPRP | 0.012
56 | RRIRRRPPRLPRPRPRPWRWPRP | 0.14
57 | RRIRRRPPRLPRPRPRPWTCPRP | 0.0743
58 | RRIRRRPPRLPRPRPRPWTGPRP | -0.444
59 | RRIRRRPPRLPRPRPRPWVNPRP | -0.0334
60 | RRIRRRPPRLPRPRPRPWWDPRP | -0.0777
61 | RRIRRRPPRLPRPRPRPWYEPRP | -0.16
62 | RRIRRRPPRLPRPRPRPWYFPRP | -0.204
63 | RRIRRRPPRLPRPRPRPWYQPRP | -3.03
64 | RRIRRRPPRLPRPRPRPYAPPRP | -0.0565
65 | RRIRRRPPRLPRPRPRPYDGPRP | -0.101
66 | RRIRRRPPRLPRPRPRPYFHPRP | -0.387
67 | RRIRRRPPRLPRPRPRPYKAPRP | -0.108
68 | RRIRRRPPRLPRPRPRPYLDPRP | -0.546
69 | RRIRRRPPRLPRPRPRPYLHPRP | -0.307
70 | RRIRRRPPRLPRPRPRPYLWPRP | -0.439
71 | RRIRRRPPRLPRPRPRPYMDPRP | -0.138
72 | RRIRRRPPRLPRPRPRPYNCPRP | 0.00861
73 | RRIRRRPPRLPRPRPRPYNNPRP | -0.76
74 | RRIRRRPPRLPRPRPRPYPTPRP | -0.0423
75 | RRIRRRPPRLPRPRPRPYRCPRP | -1.3
